Starred links: 1 amine or outer side, 2 acyl side, 3 side chain; linkers in the order of their positions; H or OH if unused. Positions of bridges follow the written chain, without caps; N, C: chain ends. Non-standard residues stand in square brackets, D forms with d. Primed or numbered codes have the meaning given here. *: point of attachment. HyPA = 3,5-dihydroxyphenylacetic acid (N-terminal cap), O=C(Cc1cc(O)cc(O)c1)*; MoPA = (3-methoxyphenyl)acetic acid (N-terminal cap), COc1cccc(CC(=O)*)c1; dTyr(Me) = O-methyl-D-tyrosine, COc1ccc(C[C@@H](N[*:1])C(=O)[*:2])cc1; Phe(OCH3) = O-methyl-tyrosine, COc1ccc(C[C@H](N[*:1])C(=O)[*:2])cc1; Hgln = homoglutamine, NC(=O)CCC[C@H](N[*:1])C(=O)[*:2]; Trp(1-Me) = Cn1cc(C[C@H](N)C(=O)O)c2ccccc21; Benzoyl(3,5-(OH)2) = O=C(c1cc(O)cc(O)c1)*; Lys(N3) = [N-]=[N+]=NCCCC[C@H](N)C(=O)O; Orn(N3) = [N-]=[N+]=NCCC[C@H](N)C(=O)O; dPhe(4-F) = N[C@H](Cc1ccc(F)cc1)C(=O)O; Acetyl(4-pyridyl) = O=C(Cc1ccncc1)*; R8 = C=CCCCCCC[C@@](C)(N)C(=O)O; PEG8′ = polyethylene glycol-8; S5 = C=CCCC[C@](C)(N)C(=O)O; Hpra = C#CCC[C@H](N)C(=O)O; dPra = C#CC[C@@H](N)C(=O)O; Nle = CCCC[C@H](N)C(=O)O; Octanoyl = CCCCCCCC(=O)*; Pra = C#CC[C@H](N)C(=O)O
Assays:
Experiment in all cases: cell-based or functional assay
[1] = molecular target: T1, human recombinant MC1R (CHO-K1 stable cell line, GenScript) (human, UniProt Q01726 1-317)
[2] = molecular target: human recombinant MC3R (CHO-K1/Gα15 stable cell line, GenScript) (human, UniProt P41968 1-323)
[3] = molecular target: T2, human recombinant MC4R (CHO-K1/Gα15 stable cell line, GenScript) (human, UniProt P32245 1-332)
[4] = molecular target: T3, human recombinant MC5R (CHO-K1/Ga15 stable cell line, GenScript) (human, UniProt P33032 1-325)
[5] = molecular target: T1, human recombinant MC1R (CHO-K1 stable …); remark: listed apart in the source
[6] = molecular target: T2, human recombinant MC4R (CHO-K1/Gα15 …); remark: listed apart in the source
[7] = molecular target: T3, human recombinant MC5R (CHO-K1/Ga15 …); remark: listed apart in the source

T2 sequence (P32245 whole entry): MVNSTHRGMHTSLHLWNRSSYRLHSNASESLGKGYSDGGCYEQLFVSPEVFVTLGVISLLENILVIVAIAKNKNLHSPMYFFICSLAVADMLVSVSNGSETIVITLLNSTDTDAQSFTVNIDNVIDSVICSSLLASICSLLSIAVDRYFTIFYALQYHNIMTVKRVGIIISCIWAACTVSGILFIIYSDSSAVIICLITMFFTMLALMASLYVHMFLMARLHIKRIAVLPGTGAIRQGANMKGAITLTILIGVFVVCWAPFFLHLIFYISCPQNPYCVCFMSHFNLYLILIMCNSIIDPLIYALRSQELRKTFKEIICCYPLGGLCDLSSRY
T1 sequence (Q01726 whole entry): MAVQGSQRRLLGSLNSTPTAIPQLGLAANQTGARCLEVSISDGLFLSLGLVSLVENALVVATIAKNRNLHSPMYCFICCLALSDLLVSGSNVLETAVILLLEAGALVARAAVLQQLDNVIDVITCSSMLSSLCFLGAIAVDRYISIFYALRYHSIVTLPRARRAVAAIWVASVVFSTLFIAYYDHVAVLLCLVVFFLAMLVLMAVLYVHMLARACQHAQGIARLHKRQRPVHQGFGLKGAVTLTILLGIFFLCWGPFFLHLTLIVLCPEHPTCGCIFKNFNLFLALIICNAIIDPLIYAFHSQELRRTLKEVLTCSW
T3 sequence (P33032 whole entry): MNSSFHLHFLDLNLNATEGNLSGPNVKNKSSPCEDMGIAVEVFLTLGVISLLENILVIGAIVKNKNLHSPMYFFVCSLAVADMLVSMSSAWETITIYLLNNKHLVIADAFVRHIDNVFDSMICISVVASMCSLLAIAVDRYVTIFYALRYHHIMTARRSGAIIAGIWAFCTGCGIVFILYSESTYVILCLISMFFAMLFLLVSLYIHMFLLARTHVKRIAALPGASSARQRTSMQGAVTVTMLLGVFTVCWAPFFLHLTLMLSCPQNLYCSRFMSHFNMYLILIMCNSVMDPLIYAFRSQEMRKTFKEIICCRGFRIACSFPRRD
Chain of human recombinant MC3R (CHO-K1/Gα15 stable cell line, GenScript) (P41968 whole entry): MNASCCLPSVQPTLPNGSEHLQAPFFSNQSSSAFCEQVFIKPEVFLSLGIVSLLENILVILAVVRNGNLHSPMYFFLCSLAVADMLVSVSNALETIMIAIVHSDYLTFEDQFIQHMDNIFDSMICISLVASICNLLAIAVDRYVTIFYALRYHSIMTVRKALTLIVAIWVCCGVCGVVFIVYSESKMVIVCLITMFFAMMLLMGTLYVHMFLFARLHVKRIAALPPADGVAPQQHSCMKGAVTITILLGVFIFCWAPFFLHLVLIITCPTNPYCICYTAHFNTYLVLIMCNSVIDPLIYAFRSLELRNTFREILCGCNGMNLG

| MC1R IC50 [1] [nM] | MC3R IC50 [2] [nM] | MC4R IC50 [3] [nM] | MC5R IC50 [4] [nM] | EC50(nM)-MC1R [5] [nM] | EC50(nM)-MC4R [6] [nM] | EC50(nM)-MC5R [7] [nM] | Binder |
| --- | --- | --- | --- | --- | --- | --- | --- |
| 0.0047 | 39.9 | 75.1 | 64 | – | – | – | Ac-[Nle][Lys(N3)]H[dF]RW[Hpra]K-NH2 (triazole 2-7; not fully specified; printed as Ac-Nle-[Lys(N3)-His-DPhe-Arg-Trp-HPra]-Lys-NH2) [KR-066] |
| 11.8 | 1630 | 84.1 | 376 | – | – | – | Ac-[Nle][Lys(N3)]H[dF]RW[dPra]K-NH2 (triazole 2-7; not fully specified; printed as Ac-Nle-[Lys(N3)-His-DPhe-Arg-Trp-DPra]-Lys-NH2) [KR-070] |
| 1.99 | 1400 | 16.4 | > 10000 | – | – | – | Ac-EHFRWGKP-NH2 [KR-007] |
| 0.04 | 27.6 | 21.8 | 40.4 | – | – | – | Ac-[Nle][Orn(N3)]H[dF]RW[Hpra]K-NH2 (triazole 2-7; not fully specified; printed as Ac-Nle-[Orn(N3)-His-DPhe-Arg-Trp-Hpra]-Lys-NH2) [KR-068] |
| 0.77 | 310 | 139 | 210 | – | – | – | {Octanoyl-PEG8′}-GGSYSMEHFRWGKPV-NH2 [KR-017] |
| 0.019 | – | 16.1 | 25.2 | 0.019 | 16.1 | 25.2 | Ac-[Nle][Lys(N3)]H[dPhe(4-F)]RW[Pra]-NH2 (triazole 2-7) [KR-049] |
| 0.11 | 224 | 80.9 | 122 | – | – | – | Ac-SYSMEHFRWGK-NH2 [KR-006] |
| 28 | 51.1 | 101 | 150 | – | – | – | Ac-[Nle][Lys(N3)][Phe(OCH3)][dF]RW[Pra]K-NH2 (triazole 2-7; not fully specified; printed as Ac-Nle-[Lys(N3)-Phe(OCH3)-DPhe-Arg-Trp-Pra]-Lys-NH2) [KR-061] |
| 0.0023 | – | 103 | 73.9 | 0.0023 | 103 | 73.9 | {Benzoyl(3,5-(OH)2)}-[Nle][Lys(N3)]H[dPhe(4-F)]RW[Pra][Hgln]-NH2 (triazole 2-7; not fully specified; printed as HyBA-Nle-[Lys(N3)-His-Dphe(4-F)-Arg-Trp-Pra]-Hgln-NH2) [KR-071] |
| 25.8 | 3000 | 485 | > 10000 | – | – | – | Ac-[R8]EHFRWG[S5]-NH2 (staple 1-8; SMILES CC(=O)N[C@]1(C)CCCCCCC=CCCC[C@@](C)(C(N)=O)NC(=O)CNC(=O)[C@H](Cc2c[nH]c3ccccc23)NC(=O)[C@H](CCCNC(=N)N)NC(=O)[C@H](Cc2ccccc2)NC(=O)[C@H](Cc2c[nH]cn2)NC(=O)[C@H](CCC(=O)O)NC1=O) [KR-015] |
| 170 | 13600 | 452 | > 10000 | – | – | – | Ac-[Lys(N3)]EHFRWG[Pra]-NH2 (triazole 1-8) [KR-010] |
| 0.44 | 176 | 34.9 | 243 | – | – | – | Ac-SMEHFRWGKPV-NH2 [KR-002] |
| 0.0041 | – | 13.9 | 134 | 0.0041 | 13.9 | 134 | {Benzoyl(3,5-(OH)2)}-[Nle][Lys(N3)]H[dF]RW[Pra]-NH2 (triazole 2-7; not fully specified; printed as HyBA-Nle-[Lys(N3)-His-DPhe-Arg-Trp-Pra]-NH2) [KR-073] |
| 0.0019 | – | 98.6 | 78 | 0.0019 | 98.6 | 78 | {Benzoyl(3,5-(OH)2)}-[Nle][Lys(N3)]H[dPhe(4-F)]RW[Pra]-NH2 (triazole 2-7; not fully specified; printed as HyBA-Nle-[Lys(N3)-His-Dphe(4-F)-Arg-Trp-Pra]-NH2) [KR-072] |
| 0.79 | 260 | 67.6 | 319 | – | – | – | Ac-[Nle][Lys(N3)]H[dF]R[Trp(1-Me)][Pra]K-NH2 (triazole 2-7; not fully specified; printed as Ac-Nle-[Lys(N3)-His-DPhe-Arg-Trp(Me)-Pra]-Lys-NH2) [KR-060] |
| 0.024 | 73.3 | 33.5 | 107 | – | – | – | Ac-[Nle][Lys(N3)]H[dF]RW[Pra][Hgln]-NH2 (triazole 2-7; not fully specified; printed as Ac-Nle-[Lys(N3)-His-DPhe-Arg-Trp-Pra]-Hgln-NH2) [KR-057] |
| 0.05 | 62.8 | 67.1 | 99.6 | – | – | – | {MoPA-MoPA}-[Nle][Lys(N3)]H[dF]RW[Pra]K-NH2 (triazole 2-7; not fully specified; printed as MoPA-MoPA-Nle-[Lys(N3)-His-DPhe-Arg-Trp-Pra]-Lys-NH2) [KR-063] |
| 0.03 | 13 | 44.4 | 167 | – | – | – | HyPA-[Nle][Lys(N3)]H[dF]RW[Pra]K-NH2 (triazole 2-7; not fully specified; printed as HyPA-Nle-[Lys(N3)-His-DPhe-Arg-Trp-Pra]-Lys-NH2) [KR-062] |
| 0.4 | 1110 | 74.5 | > 10000 | – | – | – | Ac-[Nle][Lys(N3)]HFRW[Pra]-NH2 (triazole 2-7) [KR-008] |
| 0.027 | 91.6 | 36 | 70.2 | – | – | – | Ac-[Nle][Orn(N3)]H[dF]RW[Pra]K-NH2 (triazole 2-7; not fully specified; printed as Ac-Nle-[Orn(N3)-His-DPhe-Arg-Trp-Pra]-Lys-NH2) [KR-065] |
| 2.68 | > 50000 | 122 | 195 | – | – | – | Ac-[Nle][Lys(N3)]H[dTyr(Me)]RW[Pra]K-NH2 (triazole 2-7; not fully specified; printed as Ac-Nle-[Lys(N3)-His-DTyr(Me)-Arg-Trp-Pra]-Lys-NH2) [KR-058] |
| 0.0109 | – | 45.7 | 140 | 0.011 | 45.7 | 140 | Ac-[Nle][Lys(N3)]H[dF]RW[Pra]-NH2 (bridge 2-7; not fully specified (bridges); printed as Ac-Nle-[Lys(N3)-His-DPhe-Arg-Trp-Pra]-NH2) [KR-009] |
| 0.023 | 165 | 20.2 | 154 | – | – | – | {Acetyl(4-pyridyl)}-[Nle][Lys(N3)]H[dF]RW[Pra]-NH2 (triazole 2-7; not fully specified; printed as PyAA-Nle-[Lys(N3)-His-DPhe-Arg-Trp-Pra]-NH2) [KR-074] |
| 0.11 | 66.2 | 28.7 | 79.7 | – | – | – | Ac-[Nle][Pra]H[dF]RW[Lys(N3)]K-NH2 (triazole 2-7; not fully specified; printed as Ac-Nle-[Pra-His-DPhe-Arg-Trp-Lys(N3)]-Lys-NH2) [KR-067] |

Reference: patent publication US20260152527A1 (SIGHTSTREAM BIOTHERAPEUTICS, published 2026)
